As usually defined, the Kd is the free concentration of one partner at which half of the binding sites on the other are occupied at equilibrium, for simple one-to-one binding. Higher therefore signals weaker binding.

For experiment [1], the target named is T1, galectin-3 (human (endogenous in A2780), UniProt P17931 1-250, biotinylated (printed: 'biotinylated galectin-3')). As to the kind of experiment: SPR; platelets exposed to anti-GPVI mAb.
The target in experiment [2] is T1, galectin-3. As to the kind of experiment: SPR; platelets exposed to Revacept.
Experiment [3] concerns the target T1, galectin-3. As to the kind of experiment: SPR. In general terms: SPR reads the build-up and loss of mass on a sensor chip optically.
Experiment [4] addresses T1, galectin-3. As to the kind of experiment: SPR. This is another data set of the same source.

T1 sequence (P17931 whole entry): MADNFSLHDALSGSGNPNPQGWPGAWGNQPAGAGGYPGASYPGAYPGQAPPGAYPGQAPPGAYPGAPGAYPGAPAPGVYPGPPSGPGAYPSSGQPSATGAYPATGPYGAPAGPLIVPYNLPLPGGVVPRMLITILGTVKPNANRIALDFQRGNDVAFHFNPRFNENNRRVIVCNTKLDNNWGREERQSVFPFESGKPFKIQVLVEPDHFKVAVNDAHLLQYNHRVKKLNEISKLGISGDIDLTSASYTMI

B1: platelet glycoprotein VI (GPVI) (receptor)
chain: QSGPLPKPSLQALPSSLVPLEKPVTLRCQGPPGVDLYRLEKLSSSRYQDQAVLFIPAMKRSLAGRYRCSYQNGSLWSLPSDQLELVATGVFAKPSLSAQPGPAVSSGGDVTLQCQTRYGFDQFALYKEGDPAPYKNPERWYRASFPIITVTAAHSGTYRCYSFSSRDPYLWSAPSDPLELVVTGTSVTPSRLPTEPPSPVAEFSEATAELTVSFTNEVFTTETSRSITASPKESDSPAGPARQYYTKGNLVRICLGAVILIILAGFLAEDWHSRRKRLRHRGRAVQRPLPPLPPLPLTRKSNGGQDGGRQDVHSRGLCS
As to B1, the Kd is 21.4 µM in the experiment with galectin-3 [1], 16.2 µM with galectin-3 [2], 42.2 µM in the experiment with galectin-3 [3] and 48.6 µM in the experiment with galectin-3 [4].

The values above are taken from PMC8294767 (2021).
